Relaxivity data for 1 substance are collected here from US20050008573A1, “Peptides conjugates, their derivatives with metal complexes and use thereof for magnetic resonance imaging (mri)” (priority 2001, published 2005).

The conditions of this data set: gadolinium complex.

Substance “gadolinium complex of (DTPAGLU)4(Lys)2Lys-Gly-Vapreotide [Example 3]” showed a relaxivity of 15 mM⁻¹ s⁻¹.
